Here are results for 9 molecules from patent publication US20110135657A1 (published 2011).

The koff is the rate constant with which the complex falls apart.

Test [1] deals with T1, human FGF21 receptor (FGF21R): full length human FGFR1c and full length human β-Klotho co-expressed at the … (human, UniProt P11362 22-822; Q86Z14 53-1044). As to the kind of experiment: cell-based or functional assay.
Test [2] deals with T2, denatured human FGFR1c (lysate of CHO cells stably expressing FGF21 receptor, non-reducing SDS-PAGE, blotted) (human, UniProt P11362 22-822).
T2 construct: DENATURED protein on a Western blot, not the native fold; also called denatured FGFR1c; denatured receptor proteins
T2 sequence (P11362 22-822 limits assumed): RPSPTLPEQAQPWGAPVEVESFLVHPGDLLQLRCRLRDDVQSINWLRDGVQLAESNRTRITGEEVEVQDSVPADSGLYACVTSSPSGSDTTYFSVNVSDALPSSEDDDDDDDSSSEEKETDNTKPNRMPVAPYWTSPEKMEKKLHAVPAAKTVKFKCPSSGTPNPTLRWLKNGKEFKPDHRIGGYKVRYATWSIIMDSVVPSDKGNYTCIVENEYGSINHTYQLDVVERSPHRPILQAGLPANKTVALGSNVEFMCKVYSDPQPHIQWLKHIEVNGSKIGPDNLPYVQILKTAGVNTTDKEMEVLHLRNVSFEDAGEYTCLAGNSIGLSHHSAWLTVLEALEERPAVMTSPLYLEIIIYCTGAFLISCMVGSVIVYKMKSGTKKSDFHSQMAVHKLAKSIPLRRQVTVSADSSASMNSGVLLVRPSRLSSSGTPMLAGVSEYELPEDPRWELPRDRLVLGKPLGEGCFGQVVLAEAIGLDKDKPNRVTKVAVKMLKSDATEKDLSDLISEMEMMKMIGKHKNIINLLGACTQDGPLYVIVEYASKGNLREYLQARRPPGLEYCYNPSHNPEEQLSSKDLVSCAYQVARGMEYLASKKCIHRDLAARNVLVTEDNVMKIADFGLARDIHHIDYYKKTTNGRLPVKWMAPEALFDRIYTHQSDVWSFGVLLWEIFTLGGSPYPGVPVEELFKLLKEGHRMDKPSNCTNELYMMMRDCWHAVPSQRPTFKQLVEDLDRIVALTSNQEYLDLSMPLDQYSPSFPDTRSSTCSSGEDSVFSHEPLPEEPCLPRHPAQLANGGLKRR
As to the kind of experiment: Western blot of CHO/FGF21 receptor lysate, non-reducing SDS-PAGE (denatured protein). As to the method: 20 μl of cell lysate was loaded per lane on adjacent lanes separated with a molecular weight marker lane on 4-20% SDS-PAGE gels. Following electrophoresis, the gels were blotted onto 0.2μ nitrocellulose filters. The blots were treated with Tris-buffered saline/Triton-X (TBST) plus 5% non-fat milk (blocking buffer) for 30 minutes. The blots were then cut along the molecular weight marker lanes. […] Blots were incubated with the antibodies for one hour at room temperature, followed by three washes with TBST+1% milk. The blots were then probed with anti-human or anti-goat IgG-HRP secondary antibodies for 20 min. Blots were given three 15 min. washes with TBST followed by treatment with Pierce Supersignal West Dura developing reagent (1 min.) and exposure to Kodak Biomax X-ray film.
A general note: In western blotting, separated proteins are transferred to a membrane and probed.

Test [3] has as its target T3, soluble human β-Klotho (Biacore, Example 8) (human, UniProt Q86Z14 53-996, limits assumed).
T3 construct: also called soluble β-Klotho
Kind of test: Biacore competition binning; test antibody injected over soluble receptor captured on immobilized 24H11, 17D8 or 1A2.1. The text has this:
(§1) Soluble human FGFR1c/β-Klotho ECD-Fc complex or β-Klotho was then captured on the immobilized antibody surfaces.
On the technique in general: In SPR one partner is held on a chip, and binding of the other changes the refractive index at the surface.

Test [4] has as its target T4, soluble human FGFR1c/β-Klotho ECD-Fc complex (human).
T4 construct: Both entries start at residue 1 of the precursors; also called soluble FGF21R; soluble FGF21R-Fc
Kind of test: Biacore, antibody immobilized on the sensor chip.
Description: as §1

In test [5] the target is T5, His-tagged human recombinant β-Klotho (human, UniProt Q86Z14 53-997, limits assumed).
T5 construct: also called β-Klotho captured on anti-His; human β-Klotho; not shown: His tag
As to the kind of experiment: Biacore, 100 nM mAb over His-tagged human β-Klotho captured on anti-His antibody. As to the method:
Briefly, mouse anti-His antibody (Qiagen, Valencia, Calif.) was immobilized on a CM5 chip using amine coupling reagents (General Electronics, Piscataway, N.J.). His-tagged human recombinant β-Klotho was captured on the second flow cell to ˜100RU. The first flow cell was used as a background control. 100 nM mAbs were diluted in PBS plus 0.1 mg/ml BSA, 0.005% P20 and injected over the β-Klotho captured on anti-His antibody surface. For kinetic measurement, 0.78-100 nM mAbs diluted in PBS plus 0.1 mg/ml BSA, 0.005% P20 were injected over the β-Klotho surface.

Test [6] addresses T1, human FGF21 receptor (FGF21R): full …. As to the kind of experiment: cell-based or functional assay. The source holds these as a separate data set.

T4 sequence (chain, as listed by the source limits assumed, chain 1 of 2): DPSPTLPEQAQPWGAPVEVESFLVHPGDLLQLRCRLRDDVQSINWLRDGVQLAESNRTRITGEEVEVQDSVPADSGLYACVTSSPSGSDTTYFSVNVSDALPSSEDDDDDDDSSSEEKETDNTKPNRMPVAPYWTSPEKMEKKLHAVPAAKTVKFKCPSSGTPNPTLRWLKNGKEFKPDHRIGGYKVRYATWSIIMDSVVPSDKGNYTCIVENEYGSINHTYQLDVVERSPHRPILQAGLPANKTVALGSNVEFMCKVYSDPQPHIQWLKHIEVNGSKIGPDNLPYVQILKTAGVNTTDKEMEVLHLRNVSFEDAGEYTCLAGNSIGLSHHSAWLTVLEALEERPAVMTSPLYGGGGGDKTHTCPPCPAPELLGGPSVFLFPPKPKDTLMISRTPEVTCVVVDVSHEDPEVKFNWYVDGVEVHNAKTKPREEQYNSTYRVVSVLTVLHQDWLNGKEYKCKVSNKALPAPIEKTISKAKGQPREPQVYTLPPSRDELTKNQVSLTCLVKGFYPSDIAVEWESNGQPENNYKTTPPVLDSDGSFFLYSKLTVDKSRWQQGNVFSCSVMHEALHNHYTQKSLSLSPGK
T4 sequence (chain, as listed by the source limits assumed, chain 2 of 2): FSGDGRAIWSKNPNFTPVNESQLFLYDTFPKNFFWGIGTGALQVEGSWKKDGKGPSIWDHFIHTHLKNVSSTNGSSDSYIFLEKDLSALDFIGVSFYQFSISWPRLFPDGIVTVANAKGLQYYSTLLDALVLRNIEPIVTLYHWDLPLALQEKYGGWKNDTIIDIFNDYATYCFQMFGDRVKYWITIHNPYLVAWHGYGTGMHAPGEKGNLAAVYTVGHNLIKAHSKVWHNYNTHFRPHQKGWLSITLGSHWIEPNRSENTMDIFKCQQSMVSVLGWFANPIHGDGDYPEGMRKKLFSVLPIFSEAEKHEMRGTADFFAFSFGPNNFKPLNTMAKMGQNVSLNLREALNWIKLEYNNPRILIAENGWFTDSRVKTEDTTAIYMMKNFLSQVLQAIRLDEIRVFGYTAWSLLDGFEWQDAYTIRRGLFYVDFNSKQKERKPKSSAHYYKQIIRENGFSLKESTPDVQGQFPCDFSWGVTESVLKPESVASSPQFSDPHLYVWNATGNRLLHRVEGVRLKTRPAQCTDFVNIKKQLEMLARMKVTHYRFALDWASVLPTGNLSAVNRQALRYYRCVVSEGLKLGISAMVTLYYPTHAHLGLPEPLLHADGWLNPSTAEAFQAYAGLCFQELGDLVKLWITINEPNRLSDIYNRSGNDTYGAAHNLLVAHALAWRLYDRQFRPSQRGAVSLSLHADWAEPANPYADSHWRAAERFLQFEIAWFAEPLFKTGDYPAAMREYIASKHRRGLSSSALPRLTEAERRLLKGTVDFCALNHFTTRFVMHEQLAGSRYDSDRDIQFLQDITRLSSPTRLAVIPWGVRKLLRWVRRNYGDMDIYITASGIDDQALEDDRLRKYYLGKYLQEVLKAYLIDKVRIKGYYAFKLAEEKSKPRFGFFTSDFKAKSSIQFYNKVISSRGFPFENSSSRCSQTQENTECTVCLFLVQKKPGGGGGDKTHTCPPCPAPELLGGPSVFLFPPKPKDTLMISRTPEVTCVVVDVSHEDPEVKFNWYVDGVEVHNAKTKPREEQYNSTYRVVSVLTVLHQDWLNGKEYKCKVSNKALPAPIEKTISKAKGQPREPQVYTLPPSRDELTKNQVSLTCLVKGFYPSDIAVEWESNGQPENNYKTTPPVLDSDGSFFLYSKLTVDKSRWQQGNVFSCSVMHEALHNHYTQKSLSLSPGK

B1: 12E4 (antibody, human IgG2, kappa, V domains shown)
VH: EVQLLESGGGLVQPGGSLRLSCAASRFTFSTYAMSWVRQAPGKGLEWVSGISGSGVSTYYADSVKGRFTISRDNSKNTLYLQMNSLRAEDTAVYYCAKSLIVVIVYALDYWGQGTLVTVSS
VL: EIVLTQSPGTLSLSPGERATLSCRASQNFDSNYLAWYQQKPGQAPRLLIYGASSRATGIPDNFSGSGSGTDFTLTISRLEPEDFAMYYCQQYGSSPLTFGGGTKVEIKR
notes: fully human monoclonal antibody; full chains H8/L7; also called 12E4.1
As for B1, in test [1], the “Activity (%) = % of FGF21 activity, luciferase reporter, AM-1/D FGFR1c+β-Klotho Luc clone; antibody combined with isotype IgG2k control” value (from here on “Activity (%) = % of FGF21 activity”) was 25.4 % of FGF21 activity. Besides, the binding result was “no binding” in test [2] and “binds” in test [3].

B2: 26H11 (antibody, human IgG2, kappa, V domains shown)
VH: EVQLLESGGGLVQPGGYLRLSCAASGFTFSTYAMSWVRQAPGKGLEWVSAISGSGVSTNYADSVKGRFTISRDNSKNTLYLQMNSLRAEDTAVYYCAKSLIVVMVYVLDYWGQGTLVTVSS
VL: EIVLTQSPGTLSLSPGERATLSCRASQSVSGNYLAWYQQKPGQAPRLLIYGASSRATGIPDRFSGSGSGTDFTLTISRLEPEDFAMYYCQQYGSSPLTFGGGSKVEIKR
notes: fully human monoclonal antibody; full chains H7/L6; also called 26H11.1
Regarding B2, the “Activity (%) = % of FGF21 activity” value in test [1] is 17.9 % of FGF21 activity. In addition, the binding result in test [2] is on record as “no binding”; in test [3], “binds”.

B3: 17D8 (antibody, human IgG2, kappa, V domains shown)
VH: EVQLLESGGGLVQPGGYLRLSCAASGFTFSTYAMSWVRQAPGKGLEWVSAISGSGVSTYYADSVKGRFTISRDNSKNTLYLQMNSLRAEDTAVYYCAKSLIVVMVYVLDYWGQGTLVTVSS
VL: EIVLTQSPGTLSLSPGERATLSCRASQSVSGNYLAWYQQKPGQAPRLLIYGASSRATGIPDRFSGSGSGTDFTLTISRLEPEDFAVYYCQQYGSAPLTFGGGTKVEIKR
For B3, the binding result in test [4] and in test [3] was “binds” each time.

B4: 22H5 (antibody, human IgG2, lambda, V domains shown)
VH: QVTLKESGPVLVKPTETLTLTCTVSGFSLSNARMGVSWIRQPPGKALEWLAHIFSNDEKSYSTSLKSRLTISKDTSKSQVVLTMTNMDPVDTATYYCARILLVGAYYYCGMDVWGQGTTVTVSS
VL: SYVLTQPPSVSVAPGQTARITCGGNNIGSQSVHWYQQKPGQAPVLVVYDDSDRPSGIPERFSGSNSGNTATLTISRVEAGDEADYYCQVWDNTSDHVVFGGGTKLTVLG
notes: fully human monoclonal antibody; full chains H2/L2; also called 22H5 (WT)
For the molecule B4, the koff in test [5] amounted to 0.00031 s⁻¹. Also, in test [6], the “EC50 (nM), Erk-phosphorylation, human adipocyte assay” value (“EC50 (nM), Erk-phosphorylation” for short) turned out to be 2.27 nM.

B5: 22H5 variant, light chain N92Q (antibody, human IgG2, lambda, V domains shown)
VH: QVTLKESGPVLVKPTETLTLTCTVSGFSLSNARMGVSWIRQPPGKALEWLAHIFSNDEKSYSTSLKSRLTISKDTSKSQVVLTMTNMDPVDTATYYCARILLVGAYYYCGMDVWGQGTTVTVSS
VL: SYVLTQPPSVSVAPGQTARITCGGNNIGSQSVHWYQQKPGQAPVLVVYDDSDRPSGIPERFSGSNSGNTATLTISRVEAGDEADYYCQVWDQTSDHVVFGGGTKLTVLG
notes: variant chain entry already carries the change; also called #7, P60897.3
For B5, the koff in test [5] is 0.00052 s⁻¹. The “EC50 (nM), Erk-phosphorylation” value in test [6] amounted to 3.33 nM.

B6: 22H5 variant, light chain S94A (antibody, human IgG2, lambda, V domains shown)
VH: QVTLKESGPVLVKPTETLTLTCTVSGFSLSNARMGVSWIRQPPGKALEWLAHIFSNDEKSYSTSLKSRLTISKDTSKSQVVLTMTNMDPVDTATYYCARILLVGAYYYCGMDVWGQGTTVTVSS
VL: SYVLTQPPSVSVAPGQTARITCGGNNIGSQSVHWYQQKPGQAPVLVVYDDSDRPSGIPERFSGSNSGNTATLTISRVEAGDEADYYCQVWDNTADHVVFGGGTKLTVLG
notes: variant chain entry already carries the change; also called #6, P60898.3
Consider B6, for which the koff in test [5] was found to be 0.00035 s⁻¹. The “EC50 (nM), Erk-phosphorylation” value in test [6] was determined as 1.98 nM.

B7: 22H5 variant, heavy chain C109S (antibody, human IgG2, lambda, V domains shown)
VH: QVTLKESGPVLVKPTETLTLTCTVSGFSLSNARMGVSWIRQPPGKALEWLAHIFSNDEKSYSTSLKSRLTISKDTSKSQVVLTMTNMDPVDTATYYCARILLVGAYYYSGMDVWGQGTTVTVSS
VL: SYVLTQPPSVSVAPGQTARITCGGNNIGSQSVHWYQQKPGQAPVLVVYDDSDRPSGIPERFSGSNSGNTATLTISRVEAGDEADYYCQVWDNTSDHVVFGGGTKLTVLG
notes: variant chain entry already carries the change; also called #23, P60899.2
In the case of B7, in test [5], the koff worked out at 0.0003 s⁻¹.

B8: 20D4 (antibody, human IgG2, kappa, V domains shown)
VH: QVQLVQSGAEVKKPGASVKVSCKVSGYTLTDLSMHWVRQAPGKGLEWMGGFDPEDGETIYAQKFQGRITMTEDTSTDTAYMELSSLRSEDTAVYYCASIVVVPAAIQSYYYYYGMGVWGQGTTVTVSS
VL: DIQLTQSPSSLSASIGDRVTITCRASQDIRYDLGWYQQKPGKAPKRLIYAASSLQSGVPSRFSGSGSGTEFTLTVSSLQPEDFATYYCLQHNSYPLTFGGGTKVEIER
notes: fully human monoclonal antibody; full chains H12/L12; also called 20D4.1
B8: the “Activity (%) = % of FGF21 activity” value in test [1] is 12.5 % of FGF21 activity. The figures for the binding result in test [2] and in test [3] were “no binding” and “binds”, respectively.

B9: 18B11.1 (antibody, human IgG2, kappa, V domains shown)
VH: EVQLVESGGGLVKPGGSLRLSCAASGFTFSDAWMSWVRQAPGKGLEWVGRIKSKTDGGTTDYAAPVKGRFTISRDDSKNTLYLQMNSLKTEDTAVYFCTSTYSSGWYVWDYYGMDVWGQGTTVTVSS
VL: DIVMTQSPLSLPVTPGEPASISCRSSQSLLYYNGFTYLDWFLQKPGQSPHLLIYLGSNRASGVPDRFSGSVSGTDFTLKISRVEAEDVGVYYCMQSLQTPFTFGPGTKVDIKR
notes: fully human monoclonal antibody; full chains H11/L10
With B9, the binding result in test [2] was “no binding”.
